Data as given in patent publication US11419921B2, “Methods of treating neurological disorders” (EnClear Therapies, Inc., priority 2018, dated 2022).

Legend:
[1] = 1 TAME unit = 1 μmole TAME hydrolyzed/min at pH 8.2, 25° C.; cited from earlier work
(GR)10 = assay: Cleavage of (GR)10 by commercial immobilized trypsin (agarose resin) in PBS; type: biochemical; conditions: (GR)10 50 μM
Experimental: • Immobilized TPCK-trypsin on agarose resin; ThermoFisher Cat #20230 Lot #TA264999; Activity: 555 TAME units/mL of gel; the resin was washed with PBS • TPCK-trypsin; ThermoFisher Cat #20233 Lot #SB241185; Activity: 308 TAME units/mg of protein • NOTE: One TAME unit is equal to 1 μmole of TAME (p-toluenesulfonyl-L-arginine methyl ester in the presence of Ca2+) hydrolyzed/min at pH 8.2, 25° C. (One TAME unit=19.2 National Formulatory units=57.5 BAEE units
110 μL of 50 μM (GR)10 dipeptide repeats prepared in PBS was added to immobilized trypsin in 0.8 mL centrifuge columns and incubated for the prescribed time at room temperature with end-to-end mixing resin. Columns were spun down 1 minute at 1,000 Xg to recover digested GR dipeptides. Columns were washed with 110 μL of PBS to increase (GR)10 recovery. 100 μL of each samples were transferred to a new tube and 5 μL of 10% TFA followed by 300 μL of Dilution Solution were added. The reaction mixtures were analyzed by LC/MS to determine the concentration of GR repeats of different lengths.

iCell® motor neurons = assay: Toxicity of (GR)10, untreated or protease-treated, on iCell motor neurons; type: cell-based; conditions: (GR)10 concentrations of 25, 50 and 100 μM
Experimental: 200 μM of (GR)10 were diluted in human cerebrospinal fluid (CSF) and 400 μL were applied to each immobilized proteases. The reaction was incubated 5 minutes at room temperature with end-to-end mixing. Columns were spun down 1 minute at 1,000 Xg to recover digested GR dipeptides. Columns were washed with 12 resin volumes of PBS. The procedure was repeated with 60 minutes digestion time. 100 μL of each samples were transferred to a clean tube, flash-frozen and subsequently used for LC/MS quantification of GR repeats of different lengths. The remaining 300 μL of each samples were flash-frozen and used to assess neuron toxicity.
300 μL of CSF were applied to each immobilized proteases and incubated 60 minutes at room temperature with end-to-end mixing. Columns were spun down 1 minute at 1,000 Xg to recover treated CSF. Samples were flash-frozen and subsequently used to test neuron toxicity.
This example describes the reduced toxicity of (GR)10 on in vitro neuronal cells by digestion of (GR)10 with proteases.

B1: Immobilized trypsin: Immobilized TPCK-trypsin on agarose resin; ThermoFisher Cat #20230 (protein, UniProt P00760 24-246, looked up)
Serine protease 1: IVGGYTCGANTVPYQVSLNSGYHFCGGSLINSQWVVSAAHCYKSGIQVRLGEDNINVVEGNEQFISASKSIVHPSYNSNTLNNDIMLIKLKSAASLNSRVASISLPTSCASAGTQCLISGWGNTKSSGTSYPDVLKCLKAPILSDSSCKSAYPGQITSNMFCAGYLEGGKDSCQGDSGGPVVCSGKLQGIVSWGSGCAQKNKPGVYTKVCNYVSWIKQTIASN
modifications: TPCK-treated, immobilized on agarose resin
Activity [1]: 555 TAME units/mL of gel | (GR)1 concentration ((GR)10; 0.625 TAME Units, 0 min): BLQ | (GR)2 concentration ((GR)10; 0.625 TAME Units, 0 min): BLQ | (GR)4 concentration ((GR)10; 0.625 TAME Units, 0 min): 0.1 µM | (GR)6 concentration ((GR)10; 0.625 TAME Units, 0 min): BLQ | (GR)8 concentration ((GR)10; 0.625 TAME Units, 0 min): 1.0 µM | (GR)10 concentration ((GR)10; 0.625 TAME Units, 0 min): 68.4 µM | (GR)1 concentration ((GR)10; 0.625 TAME Units, 5 min): 248.4 µM | (GR)2 concentration ((GR)10; 0.625 TAME Units, 5 min): 114.9 µM | (GR)4 concentration ((GR)10; 0.625 TAME Units, 5 min): 0.3 µM | (GR)6 concentration ((GR)10; 0.625 TAME Units, 5 min): 0.1 µM | (GR)8 concentration ((GR)10; 0.625 TAME Units, 5 min): BLQ | (GR)10 concentration ((GR)10; 0.625 TAME Units, 5 min): 3.1 µM | (GR)1 concentration ((GR)10; 0.625 TAME Units, 10 min): 307.0 µM | (GR)2 concentration ((GR)10; 0.625 TAME Units, 10 min): 89.6 µM | (GR)4 concentration ((GR)10; 0.625 TAME Units, 10 min): 0.2 µM | (GR)6 concentration ((GR)10; 0.625 TAME Units, 10 min): BLQ | (GR)8 concentration ((GR)10; 0.625 TAME Units, 10 min): BLQ | (GR)10 concentration ((GR)10; 0.625 TAME Units, 10 min): 2.1 µM | (GR)1 concentration ((GR)10; 0.625 TAME Units, 30 min): 411.7 µM | (GR)2 concentration ((GR)10; 0.625 TAME Units, 30 min): 11.8 µM | (GR)4 concentration ((GR)10; 0.625 TAME Units, 30 min): 0.1 µM | (GR)6 concentration ((GR)10; 0.625 TAME Units, 30 min): BLQ | (GR)8 concentration ((GR)10; 0.625 TAME Units, 30 min): BLQ | (GR)10 concentration ((GR)10; 0.625 TAME Units, 30 min): 0.6 µM | (GR)1 concentration ((GR)10; 0.625 TAME Units, 60 min): 465.4 µM | (GR)2 concentration ((GR)10; 0.625 TAME Units, 60 min): 5.6 µM | (GR)4 concentration ((GR)10; 0.625 TAME Units, 60 min): BLQ | (GR)6 concentration ((GR)10; 0.625 TAME Units, 60 min): BLQ | (GR)8 concentration ((GR)10; 0.625 TAME Units, 60 min): BLQ | (GR)10 concentration ((GR)10; 0.625 TAME Units, 60 min): 1.0 µM | (GR)1 concentration ((GR)10; 0.625 TAME Units, 120 min): 385.8 µM | (GR)2 concentration ((GR)10; 0.625 TAME Units, 120 min): 1.0 µM | (GR)4 concentration ((GR)10; 0.625 TAME Units, 120 min): BLQ | (GR)6 concentration ((GR)10; 0.625 TAME Units, 120 min): BLQ | (GR)8 concentration ((GR)10; 0.625 TAME Units, 120 min): BLQ | (GR)10 concentration ((GR)10; 0.625 TAME Units, 120 min): 0.1 µM | (GR)1 concentration ((GR)10; 6.25 TAME Units, 0 min): 0.2 µM | (GR)2 concentration ((GR)10; 6.25 TAME Units, 0 min): 0.2 µM | (GR)4 concentration ((GR)10; 6.25 TAME Units, 0 min): 0.1 µM | (GR)6 concentration ((GR)10; 6.25 TAME Units, 0 min): BLQ | (GR)8 concentration ((GR)10; 6.25 TAME Units, 0 min): BLQ | (GR)10 concentration ((GR)10; 6.25 TAME Units, 0 min): 32.7 µM | (GR)1 concentration ((GR)10; 6.25 TAME Units, 5 min): 391.0 µM | (GR)2 concentration ((GR)10; 6.25 TAME Units, 5 min): 1.2 µM | (GR)4 concentration ((GR)10; 6.25 TAME Units, 5 min): BLQ | (GR)6 concentration ((GR)10; 6.25 TAME Units, 5 min): BLQ | (GR)8 concentration ((GR)10; 6.25 TAME Units, 5 min): BLQ | (GR)10 concentration ((GR)10; 6.25 TAME Units, 5 min): 0.9 µM | (GR)1 concentration ((GR)10; 6.25 TAME Units, 10 min): 505.5 µM | (GR)2 concentration ((GR)10; 6.25 TAME Units, 10 min): 3.8 µM | (GR)4 concentration ((GR)10; 6.25 TAME Units, 10 min): 0.1 µM | (GR)6 concentration ((GR)10; 6.25 TAME Units, 10 min): BLQ | (GR)8 concentration ((GR)10; 6.25 TAME Units, 10 min): BLQ | (GR)10 concentration ((GR)10; 6.25 TAME Units, 10 min): 1.6 µM | (GR)1 concentration ((GR)10; 6.25 TAME Units, 30 min): 480.2 µM | (GR)2 concentration ((GR)10; 6.25 TAME Units, 30 min): 0.2 µM | (GR)4 concentration ((GR)10; 6.25 TAME Units, 30 min): BLQ | (GR)6 concentration ((GR)10; 6.25 TAME Units, 30 min): BLQ | (GR)8 concentration ((GR)10; 6.25 TAME Units, 30 min): BLQ | (GR)10 concentration ((GR)10; 6.25 TAME Units, 30 min): 0.9 µM | (GR)1 concentration ((GR)10; 6.25 TAME Units, 60 min): 409.6 µM | (GR)2 concentration ((GR)10; 6.25 TAME Units, 60 min): 0.1 µM | (GR)4 concentration ((GR)10; 6.25 TAME Units, 60 min): BLQ | (GR)6 concentration ((GR)10; 6.25 TAME Units, 60 min): BLQ | (GR)8 concentration ((GR)10; 6.25 TAME Units, 60 min): BLQ | (GR)10 concentration ((GR)10; 6.25 TAME Units, 60 min): 0.2 µM | (GR)1 concentration ((GR)10; 6.25 TAME Units, 120 min): 396.0 µM | (GR)2 concentration ((GR)10; 6.25 TAME Units, 120 min): 0.2 µM | (GR)4 concentration ((GR)10; 6.25 TAME Units, 120 min): BLQ | (GR)6 concentration ((GR)10; 6.25 TAME Units, 120 min): 0.1 µM | (GR)8 concentration ((GR)10; 6.25 TAME Units, 120 min): BLQ | (GR)10 concentration ((GR)10; 6.25 TAME Units, 120 min): 0.1 µM

B2: resins having immobilized clostripain: clostripain immobilized on agarose resin (protein, UniProt P09870 51-181; P09870 191-526, looked up)
Clostripain light chain: NKNQKVTIMYYCDADNNLEGSLLNDIEEMKTGYKDSPNLNLIALVDRSPRYSSDEKVLGEDFSDTRLYKIEHNKANRLDGKNEFPEISTTSKYEANMGDPEVLKKFIDYCKSNYEADKYVLIMANHGGGAR
Clostripain heavy chain: AICWDDSNLDKNGEADCLYMGEISDHLTEKQSVDLLAFDACLMGTAEVAYQYRPGNGGFSADTLVASSPVVWGPGFKYDKIFDRIKAGGGTNNEDDLTLGGKEQNFDPATITNEQLGALFVEEQRDSTHANGRYDQHLSFYDLKKAESVKRAIDNLAVNLSNENKKSEIEKLRGSGIHTDLMHYFDEYSEGEWVEYPYFDVYDLCEKINKSENFSSKTKDLASNAMNKLNEMIVYSFGDPSNNFKEGKNGLSIFLPNGDKKYSTYYTSTKIPHWTMQSWYNSIDTVKYGLNPYGKLSWCKDGQDPEINKVGNWFELLDSWFDKTNDVTGGVNHYQW
modifications: immobilized on agarose resin
Effect of protease treatment of (GR)10 on (GR)10 toxicity (iCell® motor neurons): abrogation of (GR)10 toxicity
